Reference: patent US20080124811A1 (AbbVie / Abbott, published 2008)
One block for each binder: values may come before it.

Columns and labels:
[1] = molecular target: T1, human brain natriuretic peptide, cyclic BNP (1-32c) (human, cyclic: ring closed by a disulfide bond between the two cysteine residues; biotinylated or acridinium-labelled in some assays); assay: KinExA, solution phase
T1 construct: also called hBNP; hBNP 1-32

[2] = molecular target: T1, human brain natriuretic peptide, cyclic …; assay: BIAcore SPR, cAb captured on goat anti-human Fc, BNP in solution, 25 C
Method: The carboxymethyl-dextran biosensor is activated with an 8 minute injection of a 1:1 mixture of 0.4 M EDC and 0.1 NHS at 20 μL/minute. GAHFc in 10 mM sodium acetate (pH 5.0) is coupled to the activated surface with a 10 minute injection. The surface is then deactivated with 1 M ethanolamine pH 8.5 for 8 minutes followed by another 10 minute injection of GAHFc.
A frozen (−80° C.) aliquot of BNP in dH₂O at 100 μM is diluted into SPR Running Buffer to a concentration of 100 μM.
The sample solution is then switched back to SPR running buffer for another ˜7 hours. The surface is then regenerated with three 33 second pulses of 100 mM phosphoric acid at a flow rate of 100 μL/min.

[3] = molecular target: T1, human brain natriuretic peptide, cyclic …; assay: … sandwich CMIA; capture 106.3AM1 on microparticles, detection 3-631-436-acridinium
Method: An aliquot containing a calibrator solution was delivered to the same well of the reaction vessel as the microparticles to form a reaction mixture. The calibrator solution contained hBNP full-length peptide. The microparticles coated with the capture antibody in a Tris/BSA diluent were pipetted by the sampling probe into the appropriate wells of the reaction vessel in the sampling center. […] After the incubation, the reaction mixture was washed with the […] ® Line Diluent to remove any of the calibrator that was not captured.
(§1) The mAb-Acridinium-conjugates at about 50-100 ng/mL were dispensed into the reaction vessel and incubated for approximately 4 minutes at a temperature of about 37° C. After the incubation, the reaction vessel was washed with the […] ® Line Diluent to remove the unbound materials.
The […] ® system measures the acridinium signals which are typically measured in relative light units (hereinafter “rlu's”). Measurements were made in triplicate.

[4] = molecular target: T1, human brain natriuretic peptide, cyclic …; assay: … sandwich CMIA; capture 106.3AM1 on microparticles, detection 3-631-436-acridinium; second particle type
Method: An aliquot containing a calibrator solution was delivered to the same well of the reaction vessel as the microparticles to form a reaction mixture. The calibrator solution contained hBNP full-length peptide. The microparticles coated with the capture antibody in a Tris/BSA diluent were pipetted by the sampling probe into the appropriate wells of the reaction vessel in the sampling center. […] After the incubation, the reaction mixture was washed with the […] ® Line Diluent to remove any of the calibrator that was not captured. The […] ® Line Diluent is commercially available from Abbott Laboratories, Abbott Park, Ill.
as §1
A solution of hydrogen peroxide and then sodium hydroxide was added to the reaction vessel and the chemiluminescent signal was measured by the chemiluminescent microparticle immunoassay (CMIA) optical assembly of the […] ® instrument.

[5] = molecular target: T1, human brain natriuretic peptide, cyclic …; assay: yeast display off-rate assay, flow cytometry; t1/2 = ln 2/koff
Method: At each individual time point, yeast cells were transferred to ice to halt the reaction. Cells were then washed twice with PBS/BSA and suspended in secondary staining reagents, specifically, SA:PE and GAM:FITC. Cells were incubated on ice for 30 minutes, washed twice and then analyzed on the FACS Aria flow cytometer. […] A first order decay equation was used to fit the data.

[6] = molecular target: T1, human brain natriuretic peptide, cyclic …; assay: off-rate assay on yeast-displayed scFv by flow cytometry: biotinylated cyclic BNP (1-32c), chase with unlabelled BNP 1-32c, SA:PE, first order decay fit
Method: At each time point, cells were transferred to ice, washed and incubated with SA:PE. After 30 minutes, cells were washed again and analyzed on the flow cytometer. A first order decay equation was used to fit the individual time points where m1 was the theoretical maximum mean fluorescence units (“MFU”) at time 0, m2 was the off-rate (“koff”), m3 was the background MFU due to autofluorescence, and M0 was the time x (the x being the time that is being measured) that measurements are taken.
A first order decay equation was used to fit the data.

[7] = molecular target: T1, human brain natriuretic peptide, cyclic …; assay: off-rate assay on yeast-displayed scFv by flow cytometry: biotinylated cyclic BNP (1-32c), chase with unlabelled BNP 1-32c, SA:PE; m2 of the first order decay fit (error 3.6694e-06, R 0.9993), time axis in sec
[8] = molecular target: T1, human brain natriuretic peptide, cyclic …; assay: Biacore SPR, antibody captured on goat anti-mouse Fc, BNP injected, 1:1 Langmuir fit
Method: GAMFc in 10 mM sodium acetate (pH 5.0) is coupled to the activated surface with a 10 minute injection. The surface is then deactivated with 1 M ethanolamine pH 8.5 for 8 minutes followed by another 10 minute injection of GAMFc. This is followed with a biosensor conditioning of ten 60 second injections of 150 mM H₃PO₄ at a flow rate of 30 μL/min. ˜14 kRU, resonance units, of GAMFc is coupled to the biosensor in each flow cell.
After loading each Ab onto the biosensor, all flow cells are allowed to equilibrate for 5-6 minutes with SPR running buffer at a flow rate of 75 μL/min before a 150 μL injection of BNP or running buffer followed by 360 seconds of dissociation time. Subsequently, the flow rate is changed to 30-100 μL/min and the surface is then regenerated with three 33-60 second pulses of 100-150 mM phosphoric acid at a flow rate of 30-100 μL/min.

[9] = molecular target: T1, human brain natriuretic peptide, cyclic …; assay: off-rate assay on yeast-displayed scFv; improvement of koff over 3-631-436 wt
[10] = molecular target: T1, human brain natriuretic peptide, cyclic …; assay: off-rate assay on yeast-displayed scFv by flow cytometry: biotinylated cyclic BNP (1-32c), chase with unlabelled BNP 1-32c, SA:PE, first order decay fit; remark: listed apart in the source
[11] = molecular target: T1, human brain natriuretic peptide, cyclic …; assay: surface plasmon resonance (BIAcore)

B1: wild-type 106.3 chimeric antibody (cAb) (antibody, human IgG1, V domains shown)
VH: QIQLVQSGPELRKPGETVKISCKGSGYTFTHYGINWVKQTPRKDLKWMGWINTHTGEPIYADDFKGRFAFSLETSANTAYLQINNLNNGDMGTYFCTRSHRFGLDYWGQGTSVTVSS
VL: DNVLTQSPPSLAVSLGQRATISCKASQSVDYNGDSYLNWYQQKPGQPPKFLIYAASNLESGIPARFSGSGSGTDFNLNIHPVEEEDAATYYCQQSNEDPFTFGSGTKLEIK
notes: Chimeric mouse variable domains on human IgG1/human kappa; also called anti-BNP WT/WT
Kd [1]: 0.0017 nM
Kd [2]: 0.019 nM
koff [2]: 0.00015 s⁻¹
kon [2]: 7.8e+06 M⁻¹ s⁻¹

B5: 500-2 (scFv)
scFv (VH-linker-VL with V5 and 6His tags), displayed on yeast: QVQLQQPGAELVRPGASVKLSCKASGYTFTSYWMNWVKQRPEQGLEWIGRIDPYDSETHYNQKFKDKAILTVDKSSSTAFVQLTSLTSEDSAVYYCVSDGYWGAGTTVTVSSGPAKELTPLKEAKVSDVVMTQTPLTLSVTTGQPASISCKSSQSLLDSDGKTYLNWLFQRPGESPKLLIYWTTKLESGVPDRFTGSGSGTDFTLKISRVEAEDLGVYYCLQATHFPWTFGGGTKLEIKRAAALESRGPFEGKPIPNPLLGLDSTRTGHHHHHH
notes: selected by on/off-rate sorting; member of group m17
Fold Improvement [9]: 15 fold
koff [10]: 0.00032 s⁻¹

B7: L2 4 (scFv)
scFv (VH-linker-VL with V5 and 6His tags), displayed on yeast: QVQLQQPGAELVRPGASVKLSCKASGYTFTSYWMNWVKQRPEQGLEWIGRIDPYDSETHYNQKFKDKAILTVDKSSSTAFVQLTSLTSEDSAVYYCVSDGYWGAGTTVTVSSGPAKELTPLKEAKVSDVVMTQTPLTLSVTTGQPASISCKSSQSLLDSDGKTYLNWLFQRPGESPKLLIYHTTKLESGVPDRFTGSGSGTDFTLKISRVEAEDLGVYYCLQATHFPWTFGGGTKLEIKRAAALESRGPFEGKPIPNPLLGLDSTRTGHHHHHH
notes: selected by equilibrium sorting; member of group m17
Fold Improvement [9]: 4 fold
koff [10]: 0.0014 s⁻¹

B9: L2 9 (scFv)
scFv (VH-linker-VL with V5 and 6His tags), displayed on yeast: QVQLQQPGAELVRPGASVKLSCKASGYTFTSYWMNWVKQRPEQGLEWIGRIDPYDSETHYNQKFKDKAILTVDKSSSTAFVQLTSLTSEDSAVYYCVSDGYWGAGTTVTVSSGPAKELTPLKEAKVSDVVMTQTPLTLSVTTGQPASISCKSSQSLLDSDGKTYLNWLFQRPGESPKLLIYVTDKLESGVPDRFTGSGSGTDFTLKISRVEAEDLGVYYCLQATHFPWTFGGGTKLEIKRAAALESRGPFEGKPIPNPLLGLDSTRTGHHHHHH
notes: selected by off-rate sorting; member of group m17
Fold Improvement [9]: 10 fold
koff [10]: 0.0005 s⁻¹

B10: L2 10 (scFv)
scFv (VH-linker-VL with V5 and 6His tags), displayed on yeast: QVQLQQPGAELVRPGASVKLSCKASGYTFTSYWMNWVKQRPEQGLEWIGRIDPYDSETHYNQKFKDKAILTVDKSSSTAFVQLTSLTSEDSAVYYCVSDGYWGAGTTVTVSSGPAKELTPLKEAKVSDVVMTQTPLTLSVTTGQPASISCKSSQSLLDSDGKTYLNWLFQRPGESPKLLIYRTNKLESGVPDRFTGSGSGTDFTLKISRVEAEDLGVYYCLQATHFPWTFGGGTKLEIKRAAALESRGPFEGKPIPNPLLGLDSTRTGHHHHHH
notes: as for B9
Fold Improvement [9]: 3 fold
koff [10]: 0.0019 s⁻¹

B11: L2 1 (scFv)
scFv (VH-linker-VL with V5 and 6His tags), displayed on yeast: QVQLQQPGAELVRPGASVKLSCKASGYTFTSYWMNWVKQRPEQGLEWIGRIDPYDSETHYNQKFKDKAILTVDKSSSTAFVQLTSLTSEDSAVYYCVSDGYWGAGTTVTVSSGPAKELTPLKEAKVSDVVMTQTPLTLSVTTGQPASISCKSSQSLLDSDGKTYLNWLFQRPGESPKLLIYQNTKLESGVPDRFTGSGSGTDFTLKISRVEAEDLGVYYCLQATHFPWTFGGGTKLEIKRAAALESRGPFEGKPIPNPLLGLDSTRTGHHHHHH
notes: as for B7
Fold Improvement [9]: 19 fold
koff [10]: 0.00025 s⁻¹

B12: L2 8 (scFv)
scFv (VH-linker-VL with V5 and 6His tags), displayed on yeast: QVQLQQPGAELVRPGASVKLSCKASGYTFTSYWMNWVKQRPEQGLEWIGRIDPYDSETHYNQKFKDKAILTVDKSSSTAFVQLTSLTSEDSAVYYCVSDGYWGAGTTVTVSSGPAKELTPLKEAKVSDVVMTQTPLTLSVTTGQPASISCKSSQSLLDSDGKTYLNWLFQRPGESPKLLIYWMNKLESGVPDRFTGSGSGTDFTLKISRVEAEDLGVYYCLQATHFPWTFGGGTKLEIKRAAALESRGPFEGKPIPNPLLGLDSTRTGHHHHHH
notes: as for B7
Fold Improvement [9]: 28 fold
koff [10]: 0.00017 s⁻¹

B13: L2 7 (scFv)
scFv (VH-linker-VL with V5 and 6His tags), displayed on yeast: QVQLQQPGAELVRPGASVKLSCKASGYTFTSYWMNWVKQRPEQGLEWIGRIDPYDSETHYNQKFKDKAILTVDKSSSTAFVQLTSLTSEDSAVYYCVSDGYWGAGTTVTVSSGPAKELTPLKEAKVSDVVMTQTPLTLSVTTGQPASISCKSSQSLLDSDGKTYLNWLFQRPGESPKLLIYWMTKLESGVPDRFTGSGSGTDFTLKISRVEAEDLGVYYCLQATHFPWTFGGGTKLEIKRAAALESRGPFEGKPIPNPLLGLDSTRTGHHHHHH
notes: as for B7
Fold Improvement [9]: 32 fold
koff [10]: 0.00015 s⁻¹

Second part, the binder after the results:

Kd [1]: 0.0093 nM
Kd [2]: 0.0019 nM
koff [2]: 2.4e-05 s⁻¹
kon [2]: 1.3e+07 M⁻¹ s⁻¹
Ratio B/A (RLU at 30 pg/mL over 0 pg/mL) [3]: 1.6
Ratio C/A (RLU at 300 pg/mL over 0 pg/mL) [3]: 17.5
Ratio D/A (RLU at 1000 pg/mL over 0 pg/mL) [3]: 126
Ratio E/A (RLU at 2000 pg/mL over 0 pg/mL) [3]: 394
Ratio B/A (RLU at 30 pg/mL over 0 pg/mL) [4]: 1
Ratio C/A (RLU at 300 pg/mL over 0 pg/mL) [4]: 5.5
Ratio D/A (RLU at 1000 pg/mL over 0 pg/mL) [4]: 40.5
Ratio E/A (RLU at 2000 pg/mL over 0 pg/mL) [4]: 132
B2: 106.3 AM1 chimeric antibody (antibody, V domains shown)
VH: QIQLVQSGPELRKPGETVKISCKGSGYTFTHYGINWVKQTPRKDLKWMGWINTHTGEAYYADDFKGRFAFSLETSANTAYLQINNLNNGDMGTYFCTRSHRFGLDYWGQGTSVTVSS
VL: DNVLTQSPPSLAVSLGQRATISCKANWPVDYNGDSYLNWYQQKPGQPPKFLIYAASNLESGIPARFSGSGSGTDFNLNIHPVEEEDAATYYCQQSNEDPFTFGSGTKLEIK
modifications: Conjugated to acridinium or biotinylated in the sandwich assays (Examples 4 and 7); the sites are not defined.
notes: PTA-6987; Acridinium-conjugated or biotinylated in the sandwich assays

half-life (t1/2) [5]: 2.28 h
koff [6]: 8.4e-05 s⁻¹
koff [7]: 8.44e-05 s⁻¹
B3: 106.3 single-chain variable fragment (scFv), unmutated, on yeast (scFv)
chain: QIQLVQSGPELRKPGETVKISCKGSGYTFTHYGINWVKQTPRKDLKWMGWINTHTGEPIYADDFKGRFAFSLETSANTAYLQINNLNNGDMGTYFCTRSHRFGLDYWGQGTSVTVSSGPAKELTPLKEAKVSDNVLTQSPPSLAVSLGQRATISCKASQSVDYNGDSYLNWYQQKPGQPPKFLIYAASNLESGIPARFSGSGSGTDFNLNIHPVEEEDAATYYCQQSNEDPFTFGSGTKLEIK

Kd [8]: 0.363 nM
koff [8]: 0.0029 s⁻¹
kon [8]: 8.4e+06 M⁻¹ s⁻¹
B4: 3-631-436 (mIgG2bκ, IgG name AM1) (antibody, V domains shown)
VH: QVQLQQPGAELVRPGASVKLSCKASGYTFTSYWMNWVKQRPEQGLEWIGRIDPYDSETHYNQKFKDKAILTVDKSSSTAFVQLTSLTSEDSAVYYCVSDGYWGAGTTVTVSS
VL: DVVMTQTPLTLSVTTGQPASISCKSSQSLLDSDGKTYLNWLFQRPGESPKLLIYVVSKLESGVPDRFTGSGSGTDFTLKISRVEAEDLGVYYCLQATHFPWTFGGGTKLEIKR
notes: recombinant wild-type variable domains on mouse IgG2b/kappa

Fold Improvement [9]: 10 fold
koff [10]: 0.00049 s⁻¹
B6: 500-10 (scFv)
scFv (VH-linker-VL with V5 and 6His tags), displayed on yeast: QVQLQQPGAELVRPGASVKLSCKASGYTFTSYWMNWVKQRPEQGLEWIGRIDPYDSETHYNQKFKDKAILTVDKSSSTAFVQLTSLTSEDSAVYYCVSDGYWGAGTTVTVSSGPAKELTPLKEAKVSDVVMTQTPLTLSVTTGQPASISCKSSQSLLDSDGKTYLNWLFQRPGESPKLLIYVTDILESGVPDRFTGSGSGTDFTLKISRVEAEDLGVYYCLQATHFPWTFGGGTKLEIKRAAALESRGPFEGKPIPNPLLGLDSTRTGHHHHHH
notes: as for B5

Fold Improvement [9]: 9 fold
koff [10]: 0.00053 s⁻¹
B8: 500-1 (scFv)
scFv (VH-linker-VL with V5 and 6His tags), displayed on yeast: QVQLQQPGAELVRPGASVKLSCKASGYTFTSYWMNWVKQRPEQGLEWIGRIDPYDSETHYNQKFKDKAILTVDKSSSTAFVQLTSLTSEDSAVYYCVSDGYWGAGTTVTVSSGPAKELTPLKEAKVSDVVMTQTPLTLSVTTGQPASISCKSSQSLLDSDGKTYLNWLFQRPGESPKLLIYWMDKLESGVPDRFTGSGSGTDFTLKISRVEAEDLGVYYCLQATHFPWTFGGGTKLEIKRAAALESRGPFEGKPIPNPLLGLDSTRTGHHHHHH
notes: as for B5

Kd [11]: 0.018 nM
koff [11]: 0.00022 s⁻¹
kon [11]: 1.2e+07 M⁻¹ s⁻¹
B14: 106.3 wt (Mouse IgG1) (antibody, V domains shown)
VH: QLVQSGPELRKPGETVKISCKGSGYTFTHYGINWVKQTPRKDLKWMGWINTHTGEPIYADDFKGRFAFSLETSANTAYLQINNLNNGDMGTYFCTRSHRFGLDYWGQGTSVTVSS
VL: DNVLTQSPPSLAVSLGQRATISCKASQSVDYNGDSYLNWYQQKPGQPPKFLIYAASNLESGIPARFSGSGSGTDFNLNIHPVEEEDAATYYCQQSNEDPFTFGSGTKLEIKR
notes: also called HB-12044
